{"source": "paper PMC5428233", "about": "“Cross-beta nanostructures based on dinaphthylalanine Gd-conjugates loaded with doxorubicin” (Scientific Reports, 2017)", "format_in_all_cases": "physicochemical", "key": {"[1]": {"assay": "Self-aggregation by intrinsic naphthyl fluorescence (intensity decrease, excimer peak)", "conditions": "water, room temperature, excitation 280 nm", "procedure": "Self-organization of the peptide conjugates at the atomic level was further characterized also in solution with fluorescence, UV-Vis, ^1HNMR, CD and FTIR spectroscopies. […] From ispection of Fig. 1b, the typical emission spectrum of the 2-naphthyl group with three maxima at 325, 340 and 355 nm, respectively, can be detected.\nThe determination of CAC (critical aggregate concentration) values was determined as previously described[6] by the titration of the fluorescent probe ANS (8-anilino-1-naphthalene sulfonic acid ammonium salt)[28], [29] with the peptide conjugates[30]."}, "[2]": {"assay": "Aggregation by 1D 1H NMR at increasing concentration", "conditions": "H2O/D2O 90/10 v/v", "description": "This trend was also confirmed by ^1HNMR measurements (see Figure S4). We have recently analyzed the conformational properties of DOTA-L6-F4 in aqueous solution by mono- and multi-dimensional, homo- and hetero-nuclear NMR techniques. In the present work we have used a similar approach and thus implemented 1D [^1H] and 2D [^1H, ^1H] NMR spectroscopy to study two different compounds: DOTA-L6-F2 and 2Nal2 analogue in absence and in presence of the DOTA coordinated metal ion lanthanum (III), La. We used lanthanum (III) since it gives rise to a NMR “easy to handle” diamagnetic complex. Both DOTA-L6-F2 and 2Nal2 present low aggregation propensities. […] In detail by comparing spectra recorded at 0.3 mg/mL and 5.0 mg/mL chemical shift changes appear relevant in the spectral regions between 8.0 and 8.2 ppm, where signals from HN amide protons are present and between 3.0 and 3.5 ppm where several peaks overlap (Table S1). […]\nNMR experiments were acquired in the temperature range of 298–303 K on either a Varian Unity Inova 600 MHz spectrometer provided with a cold probe or a 400 MHz Varian instrument provided with a 5-mm triple resonance probe and z-axis pulsed-field gradients. […] The DOTA-L6-F2 was analyzed in the concentration range 0.3 mg/mL (i.e., 0.3 mM)–5.0 mg/mL (i.e., 4.8 mM); for the La-DOTA-L6-F2 the examined concentration range was 0.3 mg/mL (i.e., 0.3 mM)–10.0 mg/mL (i.e., 8.5 mM). […]"}, "[3]": {"assay": "Transmission electron microscopy of self-assembled conjugates", "conditions": "5.0 mg/mL solution dried on grid, phosphotungstic acid stain", "procedure": "Self-assembled peptide conjugate at 5.0 mg/mL, as free base or as metal complex, was initially characterized using TEM. […] The presence of a diffraction pattern both in SAXS and in WAXS is fingerprint of a hierarchical organization of the molecules in fibers from the atomic to the nanoscale.\nTEM images were acquired by LaMest (Pozzuoli, Italy) with a FEI TECNAI G12 Spirit-Twin microscope (LaB6 source) endowed of a bottom mounted FEI Eagle-4k CCD camera (Eindhoven, The Netherlands), working at 120 kV."}, "[4]": {"assay": "Water proton relaxation measurements / NMRD profiles", "conditions": "aqueous solution, 298 K", "description": "The paramagnetic relaxivity (r1p) of Gd (III) complexes is given by:1 r1p∝1/T1MH=Kf(τR) where K is a constant related to the strength of the dipolar interaction between the protons and the electronic magnetic moment, and τR is the correlation time associated with the reorientation of the Gd-H magnetic vector. This means that slowly moving high molecular weight systems are endowed with higher relaxivity than rapidly reorienting low molecular weight ones. In the case of self assembling Gd-containing systems, the extent of aggregation may be evaluated through the measure of the water proton longitudinal relaxation rate of its aqueous solution. In Fig. 8 are reported the NMRD (Nuclear Magnetic Resonance Dispersion) profiles of Gd-2Nal2 acquired at 21.5 MHz (0.5 T) and 298 K as a function of the complex concentration. […] At concentrations higher than 10–15 mg/mL the relaxivity assumes an almost stable value which corresponds to the system in the completely aggregated form. By analyzing the profile of the relaxivity data as a function of the applied field strength (NMRD - Nuclear Magnetic Relaxation Dispersion) it is possible to obtain an accurate determination of the reorientational correlation time (τR)[16], that is strictly related to the molecular size of the investigated system. NMRD profiles were acquired below (black circles) and above (white ones) the CAC values determined by ANS titration and ^1HNMR. […] Data were analyzed using the Solomon-Bloembergen-Morgan model, [18], considering one water molecule in the inner coordination sphere (q = 1) and fixing the exchange lifetime (τM) to a reliable value ([…]) on the basis of those previously reported for mono-amido DOTA derivatives[19]–[22]. The quantitative analysis of the NMRD profile of the aggregated form was not satisfactory when the simple inner- outer-sphere model was used, so the Lipari-Szabo approach was used for the description of the rotational dynamics. This model allows one to take into account the presence ofa certain degree of internal rotation superimposed on the overall tumbling motion, [24]. These two types ofmotion, a relatively fast local rotation of the coordination cage about the linker to the peptide scaffold superimposed on the global reorientation of the system, are characterized by different correlation times: τR ^l and τR ^g, respectively. The degree of correlation between global and local rotations is given by the parameter S^2, which takes values between 0 (completely independent motions) and 1 (entirely correlated motions).\nMeasure of R1 (longitudinal water proton relaxation rates) of Gd-2Nal2 were carried out on a Stelar Spinmaster spectrometer (Pavia, Italy) operating at 0.5 T which corresponds to 21.5 MHz Proton Larmor Frequency. R1 (1/T1) values were measured at 298 K by mean of the standard inversion-recovery technique. For the measure of the proton 1/T1 NMRD (Nuclear Magnetic Resonance Dispersion) profiles, a fast field-cycling Stelar relaxometer, operating over a continuum of magnetic field strengths from 0.00024 to 0.47 T (corresponding to 0.01–20 MHz proton Larmor frequencies) was used. The temperature was set at 298 K. The relaxometer is computer controlled and the absolute uncertainty is 1/T1 ± 1%. Additional data points were obtained on a Stelar Spinmaster spectrometer coupled to an electromagnet tunable at different Larmor Frequencies between 21.5 and 70 MHz. Experimental temperature control was obtained with an air-flow heater (Stelar VTC-91) endowed of a copper constantan thermocouple (uncertainty 0.1 °C). A previously reported relaxometric method[39] was used for the determination of the concentrations of the solutions used for the relaxometric characterization. The conventional Solomon-Bloembergen-Morgan theory was used for fitting of experimental data."}}}
{"substance": "DOTA-L6-(2Nal)2 [2Nal2]", "values": [{"measurement": "concentration of appearance of the excimer peak (380-430 nm) / formation of stable aggregates", "setting": "[1]", "value": "above 2.0 mg/mL"}, {"measurement": "concentration at which self-aggregation begins (decrease of fluorescence intensity)", "setting": "[1]; 0.025-20.0 mg/mL range", "value": "200 to 500", "unit": "µg/mL"}, {"measurement": "aggregation propensity by 1H NMR (in words)", "setting": "[2]; 2Nal2 0.1-5.0 mg/mL, La-DOTA-L6-F2 0.3-10.0 mg/mL", "value": "cannot reveal significant aggregation"}, {"measurement": "supramolecular aggregation / morphology in TEM images", "setting": "[3]", "value": "long fibrillary nanostructures"}]}
{"substance": "DOTA-L6-F2 [reference compound]", "values": [{"measurement": "concentration at which aggregation appears in 1H NMR spectra (spectral changes / line broadening)", "setting": "[2]; 298-303 K", "value": "higher than 1.2 mg/mL"}]}
{"substance": "Gd-DOTA-L6-F2 [reference compound]", "values": [{"measurement": "r1p (longitudinal proton relaxivity)", "setting": "[4]; complex at 1 mg/mL", "value": 5.7, "unit": "mM⁻¹ s⁻¹"}, {"measurement": "r1p (longitudinal proton relaxivity)", "setting": "[4]; complex at 25 mg/mL (nanoaggregates), text: at 20 MHz", "value": 6.0, "unit": "mM⁻¹ s⁻¹"}]}
